According to article PMC9190012, “Heparin activation of protein Z-dependent protease inhibitor (ZPI) allosterically blocks protein Z activation through an extended heparin-binding site” (The Journal of Biological Chemistry, 2022):

How the values were obtained:
NBD-ZPI–PZ interactions = target: T1, NBD-ZPI–PZ interactions (Homo sapiens, UniProt Q9UK55, C190A/C285S/K260C); assay: Titrations of NBD-ZPI with PZ in absence and presence of fixed levels of heparin; assay type: binding; details: no heparin; 50 nM NBD-ZPI, 0.2 M NaCl buffer; read-out: ZPI–PZ KD,PZapp
T1 construct: made in house; host or cells: Escherichia coli
T1 sequence (Q9UK55 22-444 C190A/K260C/C285S): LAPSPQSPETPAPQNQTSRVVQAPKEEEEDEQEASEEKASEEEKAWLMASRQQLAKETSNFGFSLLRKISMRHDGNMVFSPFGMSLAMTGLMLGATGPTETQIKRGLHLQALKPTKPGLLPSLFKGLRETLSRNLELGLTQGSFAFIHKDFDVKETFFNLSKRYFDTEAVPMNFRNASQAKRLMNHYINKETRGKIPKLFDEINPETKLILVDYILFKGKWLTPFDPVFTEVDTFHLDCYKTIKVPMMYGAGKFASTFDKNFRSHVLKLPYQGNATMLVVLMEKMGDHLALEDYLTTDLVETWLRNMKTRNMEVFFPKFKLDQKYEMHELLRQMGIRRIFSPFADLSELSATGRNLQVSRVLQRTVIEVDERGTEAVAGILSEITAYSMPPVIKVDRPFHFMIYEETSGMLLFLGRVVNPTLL
Protocol: The effect of heparin on PZ binding to ZPI was measured by titrations of 50 nM NBD-ZPI with PZ in the absence and presence of different fixed levels of heparins of various lengths in the higher ionic strength buffer used for emission spectra. Titrations were monitored from the enhancement of NBD-ZPI fluorescence that signals PZ binding. These titrations were fit by the quadratic binding equation, ΔFobs/F0=ΔFmax/F0×[ZPI]0+[PZ]0+KD,PZapp−([ZPI]0+[PZ]0+KD,PZapp)^2−4×[ZPI]0×[PZ]0/2×[ZPI]0 where ΔFobs/Fo and ΔFmax/Fo are the observed and maximal fluorescence changes after addition of PZ expressed relative to the initial free NBD-ZPI fluorescence, respectively, and KD,PZapp = KD,PZ × (1 + [H]o/KD,H) is the apparent dissociation constant for the ZPI–PZ interaction in the absence or presence of heparin. The fitted parameters were KD,PZapp and ΔFmax/Fo.

K239C-NBD-ZPI = target: T2, K239C-NBD-ZPI (Homo sapiens, UniProt Q9UK55, C190A/C285S/K260C); assay: Fluorescence emission spectra of K239C-NBD-ZPI with PZ and heparin; assay type: binding; details: saturating PZ added to NBD-labeled ZPI
T2 construct: made in house; host or cells: Escherichia coli
T2 sequence (Q9UK55 22-444 C190A/K260C/C285S): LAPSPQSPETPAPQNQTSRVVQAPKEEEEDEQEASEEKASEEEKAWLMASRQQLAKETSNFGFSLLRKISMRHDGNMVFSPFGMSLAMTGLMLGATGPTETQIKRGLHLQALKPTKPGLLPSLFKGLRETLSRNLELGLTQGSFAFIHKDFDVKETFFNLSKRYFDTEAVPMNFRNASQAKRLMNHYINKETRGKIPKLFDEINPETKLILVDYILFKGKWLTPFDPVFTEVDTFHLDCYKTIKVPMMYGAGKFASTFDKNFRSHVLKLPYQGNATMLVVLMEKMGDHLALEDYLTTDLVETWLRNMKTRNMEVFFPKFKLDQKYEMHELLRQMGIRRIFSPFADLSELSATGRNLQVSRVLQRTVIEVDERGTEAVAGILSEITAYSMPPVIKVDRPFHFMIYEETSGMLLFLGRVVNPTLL
Protocol: Fluorescence emission spectra of NBD-ZPI (50–100 nM) were measured in the absence or the presence of PZ and heparin in 20 mM Tris buffer (pH 7.4), 0.2 M NaCl, 0.1% PEG 8000, 1 mg/ml bovine serum albumin (BSA), and 2.5 mM CaCl2 with an SLM 8000 spectrofluorometer with excitation at 480 nm over the emission range of 500 to 600 nm. Intrinsic protein fluorescence of WT and mutant ZPIs (200 nM to 1 μM) was measured in the same buffer without BSA, with excitation at 280 nm over the emission range of 300 to 400 nm. Emission was monitored in 5-nm steps with 5 to 10 s of integrations per step. Spectra were obtained in triplicate and averaged. Buffer, buffer plus PZ, or buffer plus heparin background spectra were subtracted, and dilution corrections were made for added PZ or heparin (<10%).

FXa [1] = target: T3, FXa (Homo sapiens, UniProt P00742); assay: H50 heparin-accelerated ZPI–FXa reactions: kinetics and stoichiometry of inhibition; assay type: biochemical; details: for SI / ka,app × SI / ka,app × SI relative to WT: 1 μM H50; for ka,app: 1 μM H50, 2.5 mM CaCl2, pH 7.4, 25 °C; for H50 rate enhancement: ratio of heparin-accelerated to unaccelerated ka,app × SI
T3 construct: purchased Enzyme Research Laboratories
T3 sequence (P00742 235-488 limits assumed): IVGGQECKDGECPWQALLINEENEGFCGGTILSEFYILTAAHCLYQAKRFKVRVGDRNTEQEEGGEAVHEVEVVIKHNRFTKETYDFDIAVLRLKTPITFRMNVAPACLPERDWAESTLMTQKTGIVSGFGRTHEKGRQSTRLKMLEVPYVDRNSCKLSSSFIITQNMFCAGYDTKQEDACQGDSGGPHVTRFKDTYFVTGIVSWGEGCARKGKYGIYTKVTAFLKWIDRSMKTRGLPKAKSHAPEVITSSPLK
T3 sequence (P00742 41-179 limits assumed): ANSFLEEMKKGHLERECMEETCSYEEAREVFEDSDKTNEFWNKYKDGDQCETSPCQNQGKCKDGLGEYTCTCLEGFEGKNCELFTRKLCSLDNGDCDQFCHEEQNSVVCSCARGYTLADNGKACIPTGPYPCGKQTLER
How it was run: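 Pseudo-first-order inhibition of ~0.5 nM FXa by ZPI (70 nM for H50 titration 10^−9–10^−4 M; 10–900 nM for ka,app) at 25 °C, pH 7.4 Tris with 2.5 mM CaCl2; residual activity by fluorogenic substrate, ka,app from kobs vs [ZPI] with kd fixed at 10^−4 s^−1. SI from residual activity vs ZPI:FXa ratio (50–100 nM FXa, ±1 μM H50), dissociation-corrected.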

FXa [2] = target: T3, FXa; assay: PZ-accelerated ZPI–FXa reactions: kinetics and stoichiometry of inhibition; assay type: biochemical; details: for SI / ka,app × SI / ka,app × SI relative to WT: PZ-accelerated; for ka,app: equimolar PZ, 25 μM phospholipid, 5 mM CaCl2, pH 7.4, 25 °C; for PZ enhancement: ratio of PZ-accelerated to unaccelerated ka,app × SI
How it was run: (§1)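 Human FXa (∼0.5 nM) with ZPI 10–900 nM, ± optimal H50, pseudo-first-order; PZ-accelerated runs used PZ equimolar with ZPI, 25 μM lipid, 5 mM CaCl2, ZPI 10–40 nM. Residual activity via substrate-quench initial rates; ka,app from kobs vs [ZPI] slope, kd fixed at 10^−4 s^−1. SI from residual activity vs inhibitor:protease ratio (FXa 50–100 nM, 25 °C), dissociation-corrected.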

FXa [3] = target: T3, FXa; assay: Unaccelerated ZPI–FXa reactions: kinetics and stoichiometry of inhibition; assay type: biochemical; details: for ka,app: absence of PZ, 2.5 mM CaCl2, pH 7.4, 25 °C
How it was run: as §1

## PZ: human plasma protein Z, cofactor of ZPI, from Enzyme Research Laboratories
NBD-ZPI–PZ interactions
  Kd: 9 ± 1.2 nM
K239C-NBD-ZPI
  enhancement in NBD fluorescence: ~300%

B1: K253A: ZPI helix H site mutant (protein, UniProt Q9UK55 22-444, looked up, variant K253A)
Protein Z-dependent protease …: LAPSPQSPETPAPQNQTSRVVQAPKEEEEDEQEASEEKASEEEKAWLMASRQQLAKETSNFGFSLLRKISMRHDGNMVFSPFGMSLAMTGLMLGATGPTETQIKRGLHLQALKPTKPGLLPSLFKGLRETLSRNLELGLTQGSFAFIHKDFDVKETFFNLSKRYFDTECVPMNFRNASQAKRLMNHYINKETRGKIPKLFDEINPETKLILVDYILFKGKWLTPFDPVFTEVDTFHLDKYKTIKVPMMYGAGAFASTFDKNFRCHVLKLPYQGNATMLVVLMEKMGDHLALEDYLTTDLVETWLRNMKTRNMEVFFPKFKLDQKYEMHELLRQMGIRRIFSPFADLSELSATGRNLQVSRVLQRTVIEVDERGTEAVAGILSEITAYSMPPVIKVDRPFHFMIYEETSGMLLFLGRVVNPTLL
FXa [1]
  SI: 1.5 ± 0.1 moles ZPI/mole FXa
  ka,app × SI: 4.8 ± 0.7 × 10^5 M^−1 s^−1
  ka,app × SI relative to WT: (0.40)
  ka,app: 3.2 ± 0.2 × 10^5 M^−1 s^−1
  H50 rate enhancement: 56 fold
FXa [2]
  SI: 2.4 ± 0.1 moles ZPI/mole FXa
  ka,app × SI: 7.2 ± 0.1 x 10^6 M^−1 s^−1
  ka,app × SI relative to WT: (0.16)
  ka,app: 3.0 ± 0.2 × 10^6 M^−1 s^−1
  PZ enhancement: 847
FXa [3]
  SI: 2.1 ± 0.1 moles ZPI/mole FXa
  ka,app × SI: 8.5 ± 1.2 × 10^3 M^−1 s^−1
  ka,app × SI relative to WT: (0.53)
  ka,app: 4.1 ± 0.4 × 10^3 M^−1 s^−1

B2: R263A: ZPI helix H site mutant (protein, UniProt Q9UK55 22-444, looked up, variant R263A)
Protein Z-dependent protease …: LAPSPQSPETPAPQNQTSRVVQAPKEEEEDEQEASEEKASEEEKAWLMASRQQLAKETSNFGFSLLRKISMRHDGNMVFSPFGMSLAMTGLMLGATGPTETQIKRGLHLQALKPTKPGLLPSLFKGLRETLSRNLELGLTQGSFAFIHKDFDVKETFFNLSKRYFDTECVPMNFRNASQAKRLMNHYINKETRGKIPKLFDEINPETKLILVDYILFKGKWLTPFDPVFTEVDTFHLDKYKTIKVPMMYGAGKFASTFDKNFACHVLKLPYQGNATMLVVLMEKMGDHLALEDYLTTDLVETWLRNMKTRNMEVFFPKFKLDQKYEMHELLRQMGIRRIFSPFADLSELSATGRNLQVSRVLQRTVIEVDERGTEAVAGILSEITAYSMPPVIKVDRPFHFMIYEETSGMLLFLGRVVNPTLL
FXa [1]
  SI: 2.8 ± 0.1 moles ZPI/mole FXa
  ka,app × SI: 3.5 ± 0.4 × 10^5 M^−1 s^−1
  ka,app × SI relative to WT: (0.29)
  ka,app: 1.3 ± 0.1 × 10^5 M^−1 s^−1
  H50 rate enhancement: 55 fold
FXa [2]
  SI: 3.1 ± 0.1 moles ZPI/mole FXa
  ka,app × SI: 2.1 ± 0.2 x 10^7 M^−1 s^−1
  ka,app × SI relative to WT: (0.48)
  ka,app: 6.9 ± 0.5 × 10^6 M^−1 s^−1
  PZ enhancement: 3359
FXa [3]
  SI: 2.7 ± 0.5 moles ZPI/mole FXa
  ka,app × SI: 6.4 ± 1.3 × 10^3 M^−1 s^−1
  ka,app × SI relative to WT: (0.40)
  ka,app: 2.4 ± 0.1 × 10^3 M^−1 s^−1
